{"source": "paper PMC12443476", "about": "(eLife, 2025)", "biological_target": "T1, biotinylated Tom70 (109-600) with N-terminal AVI tag (human, UniProt O94826 109-600, biotin (AVI tag, by co-expressed BirA))", "T1 construct": "also called biotin-Tom70; immobilized Tom70", "T1 sequence": "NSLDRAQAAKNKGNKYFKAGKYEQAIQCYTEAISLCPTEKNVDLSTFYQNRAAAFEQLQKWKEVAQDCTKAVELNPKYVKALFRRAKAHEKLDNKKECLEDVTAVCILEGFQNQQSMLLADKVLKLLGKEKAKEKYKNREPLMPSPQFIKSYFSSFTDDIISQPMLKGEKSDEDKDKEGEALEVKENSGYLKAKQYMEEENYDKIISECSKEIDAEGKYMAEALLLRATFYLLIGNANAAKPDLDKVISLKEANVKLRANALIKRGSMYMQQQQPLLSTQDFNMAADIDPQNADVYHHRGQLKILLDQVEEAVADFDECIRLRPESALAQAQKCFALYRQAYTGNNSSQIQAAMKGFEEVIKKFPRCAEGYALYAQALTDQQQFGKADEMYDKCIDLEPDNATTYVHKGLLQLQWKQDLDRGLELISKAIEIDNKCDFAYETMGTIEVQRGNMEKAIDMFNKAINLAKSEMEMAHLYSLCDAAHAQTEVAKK", "test": "SPR", "details": "both partners purified", "data": [{"binder": "IILRLGSPLSLNMARKALNSLEDKAFQ", "note": "[Orf9b T60A peptide]", "values": [{"measurement": "binding result", "result": "binds"}]}]}
